Numbering of substitutions follows the chain as printed. In names and notes the source's numbering stands. Values belong to the binder of their own block, whether it stands above or below them.
How the values were obtained:
[1] = molecular target: T1, Ly6E on cell lines known to express Ly6E (Kuramochi, NCI-H1781, HCC1569x2) (human, UniProt Q16553 21-101); assay: cell-based or functional assay
T1 sequence: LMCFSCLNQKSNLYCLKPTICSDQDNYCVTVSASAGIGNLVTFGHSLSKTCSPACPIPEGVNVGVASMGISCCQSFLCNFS

[2] = molecular target: T1, Ly6E on cell lines known to express …; assay: flow cytometry on Kuramochi cells
Method: (§1) Cell lines were cultured as recommended by the ATCC. Prior to staining adherent lines were released by Accutase treatment, all cells were filtered and equilibrated in BD Stain buffer (BSA). […] Samples were fixed in 1% PFA (PBS) prior to analysis. Samples were assessed on a BD LSRFortessa. Following exclusion of dead cells, singlets were assessed for antibody binding using FlowJo software (FIGS. 2A-2C).

[3] = molecular target: T1, Ly6E on cell lines known to express …; assay: flow cytometry on NCI-H1781 cells
[4] = molecular target: T1, Ly6E on cell lines known to express …; assay: flow cytometry of Fabs on NCI-H1781 cells
Method: as §1

potency difference from non-target control, 5 day anti-proliferation assay (CellTiter-Glo), cell line NCl-H1781 [1]: > 400 fold
B1: chimeric (Ch) Ly6E 3A3 ThioMab drug conjugate with SN36325 (antibody, V domains shown)
VH: AVQLVEFGGGLVQPKESLKISCAASGFTFSTVAMHWVRQAPGKGLEWIARIRTKPVNYETYYADSVKGRFTISRDDSKSMVYLQMDNLKTEDAAMYYCSAPNYYDGTYSFAYWGQGTLVTVSS
VL: DIVMTQSPTSISISVGERVTMNCKASQNVGSNVDWYQQKTGQSPELLIYKASNRYTGVPGRFTGSGSGTDFTFTISNLQAEDLAVYYCMQSDTKYTFGAGTKVEIKR
modifications: engineered cysteine carrying the SN36325 (seco-CBI-dimer) linker-drug on heavy and/or light chain; position not stated

binding result [2]: binds
B2: chimeric anti-Ly6E antibody clone 3A3 (rat-human chimeric antibody) (antibody, human IgG1, kappa, V domains shown)
VH: B1 VH
VL: B1 VL
notes: Rat variable domains on human IgG1/kappa constant regions; also called Ch Ly6E 3A3

EC50 (read off the curve) [3]: ~2 µg/mL
B3: humanized anti-Ly6E (comprising SEQ ID NOs. 3 and 5) (antibody, human IgG1, kappa, V domains shown)
VH: EVQLVESGGGLVQPGGSLKLSCAASGFTFSTVAMHWVRQASGKGLEWVGRIRTKPVNYETYYADSVKGRFTISRDDSKSTVYLQMNSLKTEDTAVYYCSAPNYYDGTYSFAYWGQGTLVTVSS
VL: DIQMTQSPSSLSASVGDRVTITCKASQNVGSNVDWYQQKPGKAPKLLIYKASNRYTGVPSRFSGSGSGTDFTFTISSLQPEDIATYYCMQSETKYTFGQGTKVEIKR
notes: also called the humanized version; 3A3.v2.D92E

EC50 (read off the curve) [4]: ~10 nM
B4: Fab of humanized anti-Ly6E variant LC D92S (Fab, V domains shown)
VH: B3 VH
VL: B3 VL with E92S
notes: Fab made by proteolysis of the IgG; also called 3A3.v2.D92S

EC50 (read off the curve) [4]: ~10 nM
B5: Fab of humanized anti-Ly6E variant LC D92E (Fab, V domains shown)
VH: B3 VH
VL: B3 VL
notes: Fab made by proteolysis of the IgG; also called 3A3.v2.D92E

Source: patent US20250122280A1, “ANTI-Ly6E ANTIBODIES, IMMUNOCONJUGATES, AND USES THEREOF” (Genentech, Inc., priority 2022, published 2025)
